Assay results reported in patent publication US9371393B2, “Class I anti-CEA antibodies and uses thereof” (Immunomedics, Inc., priority 2009, dated 2016).
[ ]: non-standard residue; d: D form. The star is where a group is joined. HSG = histaminyl-succinyl-glycine, O=C(CCC(=O)NCC(=O)*)NCCc1c[nH]cn1; DTPA = O=C(O)CN(CCN(CC(=O)O)CC(=O)O)CCN(CC(=O)O)CC(=O)*

Legend:
[1] = Stability of purified 18F-labeled IMP 272 in water; format: physicochemical; settings: 25° C., 40 min
Method: The labeled peptide was purified by applying the labeled peptide solution onto a 1 cc (30 mg) WATERS® HLB column (Part #186001879) and washing with 300 μL water to remove unbound F-18. The peptide was eluted by washing the column with 2×100 μL 1:1 EtOH/H2O. The purified peptide was incubated in water at 25° C. and analyzed by reverse phase HPLC (not shown). […] After 40 min incubation in water about 17% of the ^18F was released from the peptide, while 83% was retained (not shown).

[2] = Stability of 18F-labeled IMP 272 in PBS; format: physicochemical; settings: room temperature, 150 μL PBS, ~1 hr
Method: F-18 Labeling of IMP 272—A 3 μL aliquot of the aluminum stock solution was placed in a REACTI-VIAL™ and mixed with 50 μL ^18F (as received) and 3 μL of the IMP 272 solution. The solution was heated in a heating block at 110° C. for 15 min and analyzed by reverse phase HPLC. […] An additional 10 μL of the IMP 272 solution was added to the reaction and it was heated again and analyzed by reverse phase HPLC (not shown). […] The remainder of the peptide solution was incubated at room temperature with 150 μL PBS for ˜1 hr and then examined by reverse phase HPLC.

hMN-14×679 = assay: Antibody binding of 18F-labeled IMP 272 by size exclusion HPLC, hMN-14×679
Method: (§1) The peptide (16 μL 2 mM IMP 272, 48 μg) was labeled with ^18F and analyzed for antibody binding by size exclusion HPLC.

hMN-14×734 = assay: Antibody binding of 18F-labeled IMP 272 by size exclusion HPLC, hMN-14×734
Method: as §1

RIIα dimers (DDD) = RIIα dimers (DDD) (Homo sapiens, UniProt P13861); settings: Alto et al. 2003; read-out: affinity / binding constant for RIIα dimers (DDD); cited from earlier work
RIIα dimers (DDD), sequence (P13861 whole entry): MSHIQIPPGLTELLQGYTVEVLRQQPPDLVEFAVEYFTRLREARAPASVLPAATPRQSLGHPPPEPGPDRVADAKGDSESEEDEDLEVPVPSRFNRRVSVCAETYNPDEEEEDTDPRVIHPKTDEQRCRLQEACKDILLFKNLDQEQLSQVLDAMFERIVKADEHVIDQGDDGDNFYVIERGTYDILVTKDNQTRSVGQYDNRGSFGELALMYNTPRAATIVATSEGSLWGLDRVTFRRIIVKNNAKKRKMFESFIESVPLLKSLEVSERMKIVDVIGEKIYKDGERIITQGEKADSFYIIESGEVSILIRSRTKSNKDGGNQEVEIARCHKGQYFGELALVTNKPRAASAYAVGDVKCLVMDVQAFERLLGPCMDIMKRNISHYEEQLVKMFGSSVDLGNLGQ

[3] = tested on: GW-39 human colonic carcinoma; assay: GW-39 intrapulmonary micrometastasis model (GW-39iv), survival; format: in vivo, nude mice; settings: cells pretreated with Fab′ 10 μg/mol, 100 μg i.v. 1 day after implantation; untreated 42 days
Method: FIG. 7 illustrates an exemplary in vivo micrometastasis study. Top, immunohistochemistry of GW-39 tumor sections stained with a nonspecific antibody (left), MN-14 anti-CEACAM5 (middle), and MN-15 anti-CEACAM6 (right) and photographed at 100×. Bottom, survival of nude mice implanted with 30 μL of a 10% suspension of GW-39 human colonic cancer cells. Mice were implanted with cells that were […] for 30 minutes with MN-3-, MN-15-, or hMN-14-Fab′ (10 μg/mol). Mice also received a single 100 μg dose of the same Fab′ 1 day after cell implantation.
In vivo therapy studies—Female athymic nude mice (6 to 8 weeks old) were purchased from TACONIC® (Germantown, N.Y.). Therapy studies were done using our CEACAM5+/CEACAM6+GW-39 intrapulmonary micrometastasis model, GW-39iv (Sharkey et al., J Natl Cancer Inst 1991, 83:627-32; Blumenthal et al., Cancer Res 1992, 52:6036-44). The GW-39 human colonic carcinoma has been maintained as a serially transplanted signet-ring cell cancer line since 1966 (Goldenberg et al., Transplantation 1966, 4:760-4). […] Body weight was monitored weekly and animal survival recorded. Results were analyzed by the Kaplan-Meier estimated survival curves, and significance was determined with the log-rank comparison of survival curves. Median survival time for each treatment group also was determined. […]

tumor cell invasion = assay: Collagen-based invasion assay, cell line panel; parameters: species or system human
Method: Collagen-based invasion assay—The assay was done using CHEMICON® Kit (#ECM551, MILLIPORE®, Billerica, Mass.). Tumor cells at 80% confluence and were serum-starved for 18 to 24 hours before the assay was used. Cells were harvested with 5 mol of 2 mmol/L EDTA/PBS per 100-mm dish and incubated at 37° C. for 5 to 15 minutes. Cells were collected into 10 to 20 mol of quenching medium (serum-free DMEM containing 5% BSA) to inactivate trypsin/EDTA from the harvesting buffer. Cells were pelleted, resuspended in quenching medium (1×10^6 cells/mol), and appropriate antibody Fabs were added to individual cell aliquots. Cell invasion potential was determined as follows. Baseline invasion and invasion in the presence of a chemoattractant (10% FBS) were measured after a 72-hour incubation period at 37° C. in a 5% CO2 incubator. The bottom side of the collagen-coated polycarbonate membrane insert of the invasion chamber was placed in 400 μL of cell stain for 20 minutes at room temperature and washed. The dye was extracted and transferred into a 96-well microtiter plate for colorimetric measurements (A560 nm).

## DTPA-Gln-Ala-Lys(HSG)-D-Tyr-Lys(HSG)-NH2 ({DTPA}-QAK(HSG)[dY]K(HSG)-NH2; SMILES C[C@H](NC(=O)[C@H](CCC(N)=O)NC(=O)CN(CCN(CCN(CC(=O)O)CC(=O)O)CC(=O)O)CC(=O)O)C(=O)N[C@@H](CCCCNC(=O)CNC(=O)CCC(=O)NCCc1c[nH]cn1)C(=O)N[C@H](Cc1ccc(O)cc1)C(=O)N[C@@H](CCCCNC(=O)CNC(=O)CCC(=O)NCCc1c[nH]cn1)C(N)=O) [^18F-labeled IMP 272]
[1]
  ^18F released from the peptide: about 17%
  ^18F retained: 83%
[2]
  ^18F still attached to the peptide: 42%
  ^18F unbound: 58%
hMN-14×679
  binding to hMN-14×679: bound
hMN-14×734
  binding to irrelevant bispecific antibody hMN-14×734: did not bind

## QIEYLAKQIVDNAIQQA [AKAP-IS]
RIIα dimers (DDD)
  Kd: 0.4 nM

B1: hMN-14 Fab′: Fab′ of MN-14 in its humanized form, hMN-14 or labetuzumab (antibody, chains of the INN, looked up, V domains shown)
VH: EVQLVESGGGVVQPGRSLRLSCSASGFDFTTYWMSWVRQAPGKGLEWIGEIHPDSSTINYAPSLKDRFTISRDNAKNTLFLQMDSLRPEDTGVYFCASLYFGFPWFAYWGQGTPVTVSS
VL: DIQLTQSPSSLSASVGDRVTITCKASQDVGTSVAWYQQKPGKAPKLLIYWTSTRHTGVPSRFSGSGSGTDFTFTISSLQPEDIATYYCQQYSLYRSFGQGTKVEIK
modifications: Fab′
notes: Fab′ of MN-14 in its humanized form, hMN-14 or labetuzumab
[3]
  median survival time: 49 days
Tumor cell invasion
  effect on tumor cell invasion: had no effect on tumor cell invasion in most cell lines
